Patent publication US11377503
Where a chain is given by its changes, count along the chain named.

Columns and labels:
CD39 mutant 19 = biological target: T1, CD39 mutant 19 (human, UniProt P49961); experiment: FACS
T1 chain: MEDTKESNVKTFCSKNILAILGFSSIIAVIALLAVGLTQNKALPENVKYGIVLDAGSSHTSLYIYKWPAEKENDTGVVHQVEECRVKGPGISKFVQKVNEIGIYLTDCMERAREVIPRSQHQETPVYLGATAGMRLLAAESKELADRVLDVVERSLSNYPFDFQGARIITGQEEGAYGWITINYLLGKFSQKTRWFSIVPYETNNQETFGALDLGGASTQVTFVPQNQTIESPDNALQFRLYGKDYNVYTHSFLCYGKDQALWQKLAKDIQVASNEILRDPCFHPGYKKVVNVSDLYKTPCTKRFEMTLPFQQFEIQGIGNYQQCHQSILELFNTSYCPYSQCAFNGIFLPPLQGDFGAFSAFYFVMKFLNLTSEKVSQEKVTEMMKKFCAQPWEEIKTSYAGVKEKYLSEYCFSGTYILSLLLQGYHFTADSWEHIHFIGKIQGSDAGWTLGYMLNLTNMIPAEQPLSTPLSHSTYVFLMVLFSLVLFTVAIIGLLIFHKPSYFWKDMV

murine CD39 (CHO-moCD39) = biological target: T2, murine CD39 (CHO-moCD39) (mouse, UniProt P55772); experiment: FACS
T2 chain: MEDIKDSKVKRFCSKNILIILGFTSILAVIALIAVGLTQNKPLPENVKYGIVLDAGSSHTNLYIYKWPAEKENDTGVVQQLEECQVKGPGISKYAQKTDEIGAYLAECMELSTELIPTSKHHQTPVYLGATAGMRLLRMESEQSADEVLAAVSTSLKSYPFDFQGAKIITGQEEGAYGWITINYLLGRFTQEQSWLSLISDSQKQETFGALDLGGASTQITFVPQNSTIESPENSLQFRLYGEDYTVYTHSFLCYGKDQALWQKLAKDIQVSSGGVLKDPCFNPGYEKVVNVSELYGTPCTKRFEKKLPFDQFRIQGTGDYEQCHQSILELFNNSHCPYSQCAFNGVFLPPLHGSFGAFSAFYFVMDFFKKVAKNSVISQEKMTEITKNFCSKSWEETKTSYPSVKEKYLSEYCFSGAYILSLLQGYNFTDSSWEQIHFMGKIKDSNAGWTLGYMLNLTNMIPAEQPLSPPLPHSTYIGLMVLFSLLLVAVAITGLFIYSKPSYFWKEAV

CD39-L2 (ENTPD6) = biological target: T3, CD39-L2 (ENTPD6) (human, UniProt O75354); experiment: ELISA
T3 chain: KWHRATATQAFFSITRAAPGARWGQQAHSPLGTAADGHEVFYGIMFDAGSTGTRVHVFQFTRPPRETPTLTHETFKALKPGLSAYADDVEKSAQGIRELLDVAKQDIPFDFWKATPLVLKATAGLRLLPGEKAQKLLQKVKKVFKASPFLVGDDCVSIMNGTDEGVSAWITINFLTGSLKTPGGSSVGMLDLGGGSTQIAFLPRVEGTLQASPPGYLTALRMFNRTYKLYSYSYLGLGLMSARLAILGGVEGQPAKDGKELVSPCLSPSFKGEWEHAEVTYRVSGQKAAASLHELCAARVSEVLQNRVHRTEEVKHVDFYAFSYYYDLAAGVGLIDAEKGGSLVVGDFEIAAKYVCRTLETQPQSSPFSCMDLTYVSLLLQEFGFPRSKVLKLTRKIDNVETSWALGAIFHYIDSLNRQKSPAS

CD39-L1 (ENTPD2) = biological target: T4, CD39-L1 (ENTPD2) (human, UniProt Q9Y5L3); experiment: ELISA
T4 chain: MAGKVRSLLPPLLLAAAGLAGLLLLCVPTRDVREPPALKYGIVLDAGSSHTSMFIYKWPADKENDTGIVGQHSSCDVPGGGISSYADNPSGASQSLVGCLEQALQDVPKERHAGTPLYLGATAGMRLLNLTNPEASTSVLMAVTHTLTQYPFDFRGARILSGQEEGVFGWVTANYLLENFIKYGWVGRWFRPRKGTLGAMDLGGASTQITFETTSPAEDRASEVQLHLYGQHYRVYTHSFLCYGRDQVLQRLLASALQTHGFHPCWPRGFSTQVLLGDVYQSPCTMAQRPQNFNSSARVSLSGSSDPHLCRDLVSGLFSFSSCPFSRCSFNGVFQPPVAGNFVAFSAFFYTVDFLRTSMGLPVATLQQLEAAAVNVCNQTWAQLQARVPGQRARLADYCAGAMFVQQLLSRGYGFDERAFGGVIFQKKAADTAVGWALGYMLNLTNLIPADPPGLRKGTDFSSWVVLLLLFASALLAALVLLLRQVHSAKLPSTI

CD39-L4 (ENTPD5) = biological target: T5, CD39-L4 (ENTPD5) (human, UniProt O75356); experiment: ELISA
T5 chain: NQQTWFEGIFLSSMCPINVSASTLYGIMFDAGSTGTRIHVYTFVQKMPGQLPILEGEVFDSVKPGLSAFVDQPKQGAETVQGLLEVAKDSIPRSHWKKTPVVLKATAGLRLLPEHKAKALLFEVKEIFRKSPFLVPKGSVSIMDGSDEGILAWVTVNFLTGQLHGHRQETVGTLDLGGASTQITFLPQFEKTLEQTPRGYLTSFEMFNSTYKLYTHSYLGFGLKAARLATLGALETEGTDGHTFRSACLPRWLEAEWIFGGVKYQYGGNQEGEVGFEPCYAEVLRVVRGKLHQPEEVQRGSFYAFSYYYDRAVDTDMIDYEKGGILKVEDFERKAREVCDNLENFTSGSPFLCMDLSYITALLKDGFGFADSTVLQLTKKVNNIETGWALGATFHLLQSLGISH

CD39-L3 (ENTPD3) = biological target: T6, CD39-L3 (ENTPD3) (human, UniProt O75355); experiment: ELISA
T6 chain: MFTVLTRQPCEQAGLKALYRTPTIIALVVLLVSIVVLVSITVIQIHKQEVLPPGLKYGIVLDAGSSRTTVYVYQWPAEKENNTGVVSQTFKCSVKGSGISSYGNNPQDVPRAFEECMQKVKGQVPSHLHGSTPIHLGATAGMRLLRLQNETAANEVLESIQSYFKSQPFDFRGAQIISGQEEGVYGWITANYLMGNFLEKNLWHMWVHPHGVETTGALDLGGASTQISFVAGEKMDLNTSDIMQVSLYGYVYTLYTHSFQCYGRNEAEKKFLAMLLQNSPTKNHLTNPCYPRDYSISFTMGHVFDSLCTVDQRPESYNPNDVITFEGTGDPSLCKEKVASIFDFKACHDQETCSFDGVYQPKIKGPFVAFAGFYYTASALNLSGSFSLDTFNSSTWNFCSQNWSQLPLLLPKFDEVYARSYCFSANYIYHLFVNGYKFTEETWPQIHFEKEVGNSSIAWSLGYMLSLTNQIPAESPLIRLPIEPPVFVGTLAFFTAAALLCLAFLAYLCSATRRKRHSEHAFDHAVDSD

human CD39 (Ramos cells) [1] = biological target: T7, human CD39 (Ramos cells) (human, UniProt P49961); experiment: FACS, Ramos cells, first experiment
T7 chain: T1 chain with A138R, A139M, K142E

human CD39 (Ramos cells) [2] = biological target: T7, human CD39 (Ramos cells); experiment: FACS, Ramos cells, second experiment

B1: I-394 (antibody, V domains shown)
VH: EVKLQQSGPELVKPGASVKMSCKASGYTFTDYNMHWVKQSPGRTLEWIGYIVPLNGGSTFNQKFKGRATLTVNTSSRTAYMELRSLTSEDSAAYYCARGGTRFAYWGQGTLVTVSA
VL: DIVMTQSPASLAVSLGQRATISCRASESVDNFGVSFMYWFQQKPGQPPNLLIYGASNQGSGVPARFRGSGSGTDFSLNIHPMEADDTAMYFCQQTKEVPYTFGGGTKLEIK
B1: no binding (CD39 mutant 19); no binding (murine CD39 (CHO-moCD39)); no binding (CD39-L2 (ENTPD6)). B1: no binding (CD39-L1 (ENTPD2)); no binding (CD39-L4 (ENTPD5)); no binding (CD39-L3 (ENTPD3)). The EC50 (human CD39 (Ramos cells) [1]) was 0.16 µg/mL and the EC50 (human CD39 (Ramos cells) [2]) was 0.19 µg/mL.
